Data: patent publication US6919086B1, “Graminae pollen allergen mutants for specific immunotherapy, and production and use of the same” (Merck Patent Gesellschaft mit, priority 1997, dated 2005)
“Also recorded” adds a separate entry of the source. Like-named read-outs stand apart in the source and are kept apart here.

Assays:
[1] = target: IgE antibodies of the individual allergic patient serum II/17; experiment: EAST inhibition, individual serum II/17
[2] = system: IgE antibodies of allergic patients; experiment: EAST inhibition test (IgE reactivity / allergenicity); format: binding, human; conditions: for IC50: read-out: Inhibition value 50% (concentration of the inhibitor at 50% inhibition); for Allergenic potency (Prel) 25%: relative to native Phl p 5b at 25% inhibition; for Allergenic potency (Prel) 50%: relative to native Phl p 5b at 50% inhibition
Method: The effects of the induced mutations on the allergenicity, i.e. the ability to bind to the IgE antibodies of allergic patients, of the modified recombinant allergens is determined qualitatively and quantitatively by means of the EAST inhibition test. […] The extent of the immunochemical relatedness (cross reactivity) can also be quantified. This EAST inhibition test only takes the reaction with IgE antibodies into account.
The binding of the allergens by the IgE antibodies is the basic prerequisite for the allergen-specific activation of the effector cells (mast cells, basophils, inter alia) in type I allergy. The allergen-specific inhibition of the enzyme/allergen sorbent test (EAST) is the best means for qualitatively and quantitatively recording the binding of the allergens to IgE anti-bodies. The EAST inhibition test is carried out as follows. Microtitre plates are coated with allergen (natural or recombinant Ph1 p 5 or Ph1 p 5b) (1 μg/ml). After the unbound allergen molecules have been removed by washing, non-specific plastic binding sites are blocked with bovine serum albumin (0.5%). […] from allergic patients, as a representative pool of 10-30 donors or as an individual serum, is incubated, in a suitable dilution, with the allergen-coated microtritre plates. The bound allergen-specific IgE antibodies are quantified using enzyme-coupled anti-IgE antibodies (e.g. alk. phosphatase-a-IgE antibodies). This binding is inhibited by soluble allergen or the substance to be tested (allergen mutants) in dependence on the concentration. The inhibition curve obtained with the purified natural allergen Ph1 p 5b is used as the reference.

[3] = system: Phl p 5b-reactive T cell clones (TCCs) from allergic patients; experiment: Proliferative reaction of Phl p 5b-reactive T cell clones ([3H]-thymidine incorporation); format: cell-based, human; conditions: final concentration 0.3 μM
Method: (§1) 40 ml of heparinized blood were obtained from each patient. Peripheral mononuclear cells (PBMC) were then isolated from this blood sample by means of the customary method using density gradient centrifugation. Analogous cell isolations were carried out at a later stage when it was necessary to obtain irradiated autologous antigen-presenting cells (APC) for characterizing the TCL and TCC further. After the PBMC had been counted, TCL which reacted to group 5 allergens in vitro were established as follows and as has already been described in detail elsewhere (Lit. 1): in each well of 24-well microculture plates, from 1.5 to 2.0×10^6 PBMC in 1 ml of culture medium (UltraCulture) were stimulated for 7 days in the added presence of natural Phl p5 allergens (in each case 10 μg/well) which had been purified by immunoaffinity chromatography. A total of from 8 to 10 of these cultures were set up. The isolation of Phl p5 by means of immunoaffinity chromatography has been described in detail (Lit. 2). At the end of the 7 days of culture, IL-2 (from 10 to 20 IU/well) was added to the cell cultures for a further 5 to 7 days. All the individual cultures were then pooled and the T cell blasts were enriched by means of density gradient centrifugation; the TCL which were obtained were then tested in a specific lymphocyte proliferation test (see Lit. 1 as well). For this, 2×10^4/ml TCL blasts were in each case cultured with 5×10^4/ml irradiated autologous APCs in triplicate samples in 96-well microculture plates. 10-20 μg of Phl p5 allergen were added as the specific antigen stimulus. After 56 hours of incubation, ^3H-labelled thymidine (1 μCi/well) was pipetted into the microcultures. After a further 16 hours, the radioactivity which had been incorporated into the proliferating T cell blasts was measured in a beta counter (Matrix 96). The results were calculated, as the arithmetic mean of the multiple samples, in counts per minute (cpm). The criterion for the quality of the TCL was the stimulation index, which was obtained by relating the cpm values with Phl p5 addition to those without Phl p5 addition.
After a TCL had been cloned (see below), the specificity of the isolated TCCs were determined as has just been described. Stimulation indices of at least 5 were rated as being positive for the TCCs. The determination of T cell epitopes for defining the T cell-reactive regions on group 5 allergens was also carried out using specific proliferation tests, with 1-2 μg of synthesized dodecapeptide/ml being used for this purpose in each case (see below).
The reactivity of the recombinant Ph1 p 5b mutants was tested on established T cell clones (TCCs) of known specificity. The TCCs derive from patients who are allergic to grass pollen (see Ex. 1) and are directed against the T cell-reactive regions A (FIG. 7), B (FIG. 8) and C (FIG. 9). The T cell reactivity was measured by stimulating the clones to proliferate.

[4] = target: IgE antibodies of the individual allergic patient serum II/12; experiment: EAST inhibition, individual serum II/12
[5] = target: IgE antibodies of the individual allergic patient serum II/3; experiment: EAST inhibition, individual serum II/3
[6] = system: Phl p 5b-reactive T cell lines (TCLs) from allergic patients; experiment: Proliferative reaction of Phl p 5b-reactive oligoclonal T cell lines ([3H]-thymidine incorporation); format: cell-based, human
Method: In the second phase, oligoclonal T cell lines, which have been established by repeated stimulation with the relevant allergens, are employed for the testing. Once again, only those modified recombinant allergens which at least give rise to a stimulation index (SI) of 50% of the SI of the wild type are taken into consideration.
as §1
The oligoclonal T cell lines (TCLs) from 8 patients who were allergic to grass pollen (see Ex. 1) were established by repeated activation with natural Ph1 p 5b (a+b) or recombinant rPh1 p 5b or 5a+5b.
The proliferative reaction of these TCLs was tested using the rPh1 p 5b mutants (FIG. 10).

[7] = allergic patient serum pool Bor 18/100
[8] = allergic patient serum pool We 6/97
[9] = individual allergic patient serum II/3
[10] = individual allergic patient serum II/12
[11] = individual allergic patient serum II/17
[12] = primary stimulator n Phl p 5, secondary activator 0.3 μM
[13] = primary stimulator r Phl p 5b, secondary activator 0.3 μM

B1: rPhl p 5b deletion mutant DM3 (deletion A154-T177, A220T) (protein)
chain: ADAGYAPATPAAAGAAAGKATTEEQKLIEDINVGFKAAVAAAASVPAADKFKTFEAAFTSSSKAAAAKAPGLVPKLDAAYSVAYKAAVGATPEAKFDSFVASLTEALRVIAGALEVHAVKPVTEEPGMAKIPAGELQIIDKIDAAFKVAATAAGGAYDTYKCIPSLEAAVKQAYAATVAAAPQVKYAVFEAALTKTITAMSEVQKVSQPATGAATVAAGAATTAAGAASGAATVAAGGYKV
IC50 [1]: 0.05 µM | allergenic potency (Prel) at 25% inhibition (relative to native Phl p 5b) [1]: 0.038 | allergenic potency (Prel) at 50% inhibition (relative to native Phl p 5b) [1]: 0.0005 | inhibition value (inhibitor concentration at 25% inhibition) [1]: 5.6e-09 mol/L | Allergenicity / IgE reactivity, overall assessment (in words) ([2]; all serum pools and individual sera, Prel values): marked reduction in allergenicity; also recorded: greatly reduced, it is still detectable | Inhibition value 25% (concentration of the inhibitor at 25% inhibition) [2, 7]: 1.2e-09 mol/L | IC50 [2, 7]: 4.1 µM | Inhibition value 25% (concentration of the inhibitor at 25% inhibition) [2, 8]: 5.1e-09 mol/L | IC50 [2, 8]: 0.029 µM | Inhibition value 25% (concentration of the inhibitor at 25% inhibition) [2, 9]: 1.1e-06 mol/L | IC50 [2, 9]: 32000 µM | Inhibition value 25% (concentration of the inhibitor at 25% inhibition) [2, 10]: 4.5e-09 mol/L | IC50 [2, 10]: 100 µM | Inhibition value 25% (concentration of the inhibitor at 25% inhibition) [2, 11]: 5.6e-09 mol/L | IC50 [2, 11]: 0.05 µM | Allergenic potency (Prel) 25% ([2]; individual serum II/3): 0.0004 | Allergenic potency (Prel) 25% ([2]; individual serum II/12): 0.012 | Allergenic potency (Prel) 25% ([2]; individual serum II/17): 0.038 | Allergenic potency (Prel) 25% ([2]; serum pool Bor 18/100): 0.028 | Allergenic potency (Prel) 25% ([2]; serum pool We 6/97): 0.099 | Allergenic potency (Prel) 50% ([2]; individual serum II/3): 1.8 × 10^−7 | Allergenic potency (Prel) 50% ([2]; individual serum II/12): 5.7 × 10^−5 | Allergenic potency (Prel) 50% ([2]; individual serum II/17): 0.0005 | Allergenic potency (Prel) 50% ([2]; serum pool Bor 18/100): 0.0001 | Allergenic potency (Prel) 50% ([2]; serum pool We 6/97): 0.0020 | EAST inhibition curve / inhibitory effect (in words) ([2]; serum pool Bor 18/100 (20 donors), FIG. 1): markedly decreased inhibitory effect | Allergenicity from EAST inhibition curves (in words) ([2]; serum pool We 6/97 and individual sera II3, II12, II17, FIGS. 2-5): greatly reduced allergenicity | Incorporation of [3H]-thymidine into TCC JR 13 (stimulation index class) ([3]; T cell-reactive region A): +++ (>10 (+++)) | Incorporation of [3H]-thymidine into TCC JR 15 (stimulation index class) ([3]; T cell-reactive region A): +++ (>10 (+++)) | Incorporation of [3H]-thymidine into TCC DW8 (stimulation index class) ([3]; T cell-reactive region B): + (1-2 (+)) | Incorporation of [3H]-thymidine into TCC UZH2 (stimulation index class) ([3]; T cell-reactive region B): +++ (>10 (+++)) | Incorporation of [3H]-thymidine, stimulation index SI, 1st exp. ([3]; T cell-reactive region C): 9.8 | Incorporation of [3H]-thymidine, stimulation index SI, 2nd exp. ([3]; T cell-reactive region C): 6.9 | Incorporation of [3H]-thymidine, stimulation index SI, 3rd exp. ([3]; T cell-reactive region C): 4.4 | Incorporation of [3H]-thymidine, stimulation index class (last column, no head) ([3]; T cell-reactive region C): ++ (5-10 (++)) | IC50 [4]: 100 µM | allergenic potency (Prel) at 25% inhibition (relative to native Phl p 5b) [4]: 0.012 | allergenic potency (Prel) at 50% inhibition (relative to native Phl p 5b) [4]: 5.7e-05 | inhibition value (inhibitor concentration at 25% inhibition) [4]: 4.5e-09 mol/L | IC50 [5]: 32000 µM | allergenic potency (Prel) at 25% inhibition (relative to native Phl p 5b) [5]: 0.0004 | allergenic potency (Prel) at 50% inhibition (relative to native Phl p 5b) [5]: 1.8e-07 | inhibition value (inhibitor concentration at 25% inhibition) [5]: 1.1e-06 mol/L | Proliferative reaction of TCLs (in words) ([6]; TCLs from 8 patients allergic to grass pollen): strong specific stimulation with most of the TCLs | Incorporation of [3H]-thymidine into TCL 2 Eic (stimulation index class) [6, 12]: + (1-2 (+)) | Incorporation of [3H]-thymidine into TCL 4 Mer (stimulation index class) [6, 12]: ++ (5-10 (++)) | Incorporation of [3H]-thymidine into TCL 5 17.4 (stimulation index class) ([6]; primary stimulator r Phl p 5, secondary activator 0.3 μM): ++ (5-10 (++)) | Incorporation of [3H]-thymidine into TCL 6 Mah (stimulation index class) ([6]; primary stimulator r Phl p 5a, r Phl p 5b, secondary activator 0.3 μM): +++ (>10 (+++)) | Incorporation of [3H]-thymidine into TCL 7 19.2 (stimulation index class) [6, 13]: +++ (>10 (+++)) | Incorporation of [3H]-thymidine into TCL 8 20.1 (stimulation index class) [6, 13]: +++ (>10 (+++))
